Assay results reported in US20200270325A1 (Merck Sharp & Dohme, published 2020).
Numbered stars: 1 amine (or outer) side, 2 acyl side, 3 side chain; on linkers, the order of the positions; unused ones are H or OH. Square brackets hold non-standard residues; d marks the D form. Side chains are listed from the residue outwards. Ends that are not written are not given here. * marks the point of attachment. C18 diacid = O=C(O)CCCCCCCCCCCCCCCCC(=O)*; C16 diacid = O=C(O)CCCCCCCCCCCCCCC(=O)*; γGlu = O=C(O)[C@H](CCC(=O)[*:2])N[*:1]; Met(O2) = CS(=O)(=O)CC[C@H](N)C(=O)O; αMeD = C[C@](N)(CC(=O)O)C(=O)O; AEEA = NCCOCCOCC(=O)O; Aib = CC(C)(N)C(=O)O

B1: TP627 (peptide)
peptide: H[Aib]QGTFTSDYSKYLDARAAK([AEEA-γGlu-C16 diacid])DFVQWL[Met(O2)][αMeD]T-NH2
modifications: N-terminus assumed
SMILES: CC(C)C[C@H](NC(=O)[C@H](Cc1ccc(O)cc1)NC(=O)[C@H](CCCCN)NC(=O)[C@H](CO)NC(=O)[C@H](Cc1ccc(O)cc1)NC(=O)[C@H](CC(=O)O)NC(=O)[C@H](CO)NC(=O)[C@@H](NC(=O)[C@H](Cc1ccccc1)NC(=O)[C@@H](NC(=O)CNC(=O)[C@H](CCC(N)=O)NC(=O)C(C)(C)NC(=O)[C@@H](N)Cc1c[nH]cn1)[C@@H](C)O)[C@@H](C)O)C(=O)N[C@@H](CC(=O)O)C(=O)N[C@@H](C)C(=O)N[C@@H](CCCNC(=N)N)C(=O)N[C@@H](C)C(=O)N[C@@H](C)C(=O)N[C@@H](CCCCNC(=O)COCCOCCNC(=O)CC[C@H](NC(=O)CCCCCCCCCCCCCCC(=O)O)C(=O)O)C(=O)N[C@@H](CC(=O)O)C(=O)N[C@@H](Cc1ccccc1)C(=O)N[C@H](C(=O)N[C@@H](CCC(N)=O)C(=O)N[C@@H](Cc1c[nH]c2ccccc12)C(=O)N[C@@H](CC(C)C)C(=O)N[C@@H](CCS(C)(=O)=O)C(=O)N[C@@](C)(CC(=O)O)C(=O)N[C@H](C(N)=O)[C@@H](C)O)C(C)C
B2: TP629 (peptide)
peptide: H[Aib]QGTFTSDYSKYLDARAAK([AEEA-γGlu-C20‑OH])DFVQWL[Met(O2)][αMeD]T-NH2
B3: TP626 (peptide)
peptide: H[Aib]QGTFTSDYSKYLDARAAK([AEEA-γGlu-C18 diacid])DFVQWL[Met(O2)]DT-NH2
modifications: N-terminus assumed
SMILES: CC(C)C[C@H](NC(=O)[C@H](Cc1ccc(O)cc1)NC(=O)[C@H](CCCCN)NC(=O)[C@H](CO)NC(=O)[C@H](Cc1ccc(O)cc1)NC(=O)[C@H](CC(=O)O)NC(=O)[C@H](CO)NC(=O)[C@@H](NC(=O)[C@H](Cc1ccccc1)NC(=O)[C@@H](NC(=O)CNC(=O)[C@H](CCC(N)=O)NC(=O)C(C)(C)NC(=O)[C@@H](N)Cc1c[nH]cn1)[C@@H](C)O)[C@@H](C)O)C(=O)N[C@@H](CC(=O)O)C(=O)N[C@@H](C)C(=O)N[C@@H](CCCNC(=N)N)C(=O)N[C@@H](C)C(=O)N[C@@H](C)C(=O)N[C@@H](CCCCNC(=O)COCCOCCNC(=O)CC[C@H](NC(=O)CCCCCCCCCCCCCCCCC(=O)O)C(=O)O)C(=O)N[C@@H](CC(=O)O)C(=O)N[C@@H](Cc1ccccc1)C(=O)N[C@H](C(=O)N[C@@H](CCC(N)=O)C(=O)N[C@@H](Cc1c[nH]c2ccccc12)C(=O)N[C@@H](CC(C)C)C(=O)N[C@@H](CCS(C)(=O)=O)C(=O)N[C@@H](CC(=O)O)C(=O)N[C@H](C(N)=O)[C@@H](C)O)C(C)C

What was measured:
[1] = target: human GLP-1 receptor (GLP1R) (human, UniProt P43220 24-463); assay: cell-based or functional assay
[2] = target: human Glucagon receptor (GCGR) (human, UniProt P47871 26-477); assay: cell-based or functional assay
human Glucagon receptor (GCGR), sequence (P47871 26-477): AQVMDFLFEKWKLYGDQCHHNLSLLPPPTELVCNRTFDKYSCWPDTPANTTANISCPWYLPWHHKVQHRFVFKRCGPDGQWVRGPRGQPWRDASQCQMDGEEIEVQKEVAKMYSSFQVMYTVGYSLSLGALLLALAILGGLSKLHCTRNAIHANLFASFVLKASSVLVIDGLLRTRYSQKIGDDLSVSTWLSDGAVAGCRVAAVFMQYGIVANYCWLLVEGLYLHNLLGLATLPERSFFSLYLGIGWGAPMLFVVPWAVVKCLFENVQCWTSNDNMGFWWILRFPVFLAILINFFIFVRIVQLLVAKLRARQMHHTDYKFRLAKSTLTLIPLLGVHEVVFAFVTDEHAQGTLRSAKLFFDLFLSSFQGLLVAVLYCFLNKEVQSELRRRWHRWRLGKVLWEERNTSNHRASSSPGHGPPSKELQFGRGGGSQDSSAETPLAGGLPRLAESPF

Binder	GLP1R EC50 human [1]	GCGR EC50 human [2]
B1	0.25 nM	0.14 nM
B2	2.23 nM	3.17 nM
B3	0.77 nM	0.39 nM
